Measured values as given in patent US20230322940A1 (published 2023).

Target: CD44 on CD44-positive and CD133-positive glioma stem cells GSC20 (UniProt P16070 21-742)
Test: cell-based or functional assay

| Lysis rate of glioma stem cells by CAR-T cells (LDH release), effect-target ratio 1:1 [%] | Lysis rate of glioma stem cells by CAR-T cells (LDH release), effect-target ratio 2:1 [%] | Lysis rate of glioma stem cells by CAR-T cells (LDH release), effect-target ratio 3:1 [%] | Lysis rate of glioma stem cells by CAR-T cells (LDH release), effect-target ratio 5:1 [%] | Binder |
| --- | --- | --- | --- | --- |
| 22.2 | 37.3 | 56.2 | 61.4 | fusion protein shown in SEQ ID NO. 6 (anti-CD44 single-chain antibody, CD28, CD3, T2A, anti-TIM3 single-chain antibody), expressed on CAR-T 4 cells (other) QVQLVESGGGVVQPGRSLRLSCAASGFTFSSYGMHWVRQAPGKGLEWVAVIWYDGSNKFYADSVKGRFTISRDNSKNTLYLQMNSLRAEDTAVYYCARRSDYRGYYGMDVWGQGTTVTVSSGSTSGGGSGGGSGGGGSSEIVLTQSPATLSLSPGERATLSCRASQSVINYLAWYQQKPGQAPRLLIYDASNRASGIPARFSGSGSGTDFTLTISSLEPEDFAVYYCQQRRNWPLTFGGGTKVEIKTTTPAPRPPTPAPTIASQPLSLRPEACRPAAGGAVHTRGLDFACDIYIWAPLAGTCGVLLLSLVITLYCRSKRSRLLHSDYMNMTPRRPGPTRKHYQPYAPPRDFAAYRSRVKFSRSADAPAYKQGQNQLYNELNLGRREEYDVLDKRRGRDPEMGGKPRRKNPQEGLYNELQKDKMAEAYSEIGMKGERRRGKGHDGLYQGLSTATKDTYDALHMQALPPREGRGSLLTCGDVEENPGPMTNKCLLQIALLLCFSTTALSQVQLQQSGPGLVKPSHTLSLTCTVSGGSISSGGYYWSWTRQHPGMGLEWIGYISYSGSIYYTPSLKSRLTISVDTSKNQFSLKLSSVTAADTAVYYCASLDSWGSNRDYWGQGTLVTVSSGGGGSEIVLTQSPATLSLSPGERATLSCRASQSVSSYLAWYQQKPGQAPRLLIYDASNRATGIPARFSGSGSGTDFTLTISSLEPEDFAVYYCQQRSNWPLTFGGGTKVEIK |
| 31.1 | 50 | 62.8 | 86.8 | fusion protein shown in SEQ ID NO. 8 (anti-CD44 single-chain antibody, anti-CD133 single-chain antibody, CD28, truncated body of IL7Rα, CD3, T2A, anti-TIM3 … (other) QVQLVESGGGVVQPGRSLRLSCAASGFTFSSYGMHWVRQAPGKGLEWVAVIWYDGSNKFYADSVKGRFTISRDNSKNTLYLQMNSLRAEDTAVYYCARRSDYRGYYGMDVWGQGTTVTVSSGSTSGGGSGGGSGGGGSSEIVLTQSPATLSLSPGERATLSCRASQSVINYLAWYQQKPGQAPRLLIYDASNRASGIPARFSGSGSGTDFTLTISSLEPEDFAVYYCQQRRNWPLTFGGGTKVEIKGGGGSGGGGSGGGGSQVQLVQSGAEVKKPGASVKVSCKASGYTFTDFEMHWVRQAPGQGLEWMGDIDPGTGDTAYNLKFKGRVTMTTDTSTSTAYMELRSLRSDDTAVYYCALGAFVYWGQGTLVTVSSGSTSGGGSGGGSGGGGSSDVVMTQSPLSLPVTPGEPASISCRSSQSLANSYGNTYLSWYLQKPGQSPQLLIYGISNRFSGVPDRFSGSGSGTDFTLKISRVEAEDVGVYYCLQGTHQPYTFGQGTKLEIKTTTPAPRPPTPAPTIASQPLSLRPEACRPAAGGAVHTRGLDFACDIYIWAPLAGTCGVLLLSLVITLYCRSKRSRLLHSDYMNMTPRRPGPTRKHYQPYAPPRDFAAYRSKKRIKPIVWPSLPDHKKTLEHLCKKPRKNLNVSFNPESFLDCQIHRVDDIQARDEVEGFLQDTFPQQLEESEKQRLLGSNQEEAYVTMSSFYQNQRVKFSRSADAPAYKQGQNQLYNELNLGRREEYDVLDKRRGRDPEMGGKPRRKNPQEGLYNELQKDKMAEAYSEIGMKGERRRGKGHDGLYQGLSTATKDTYDALHMQALPPREGRGSLLTCGDVEENPGPMTNKCLLQIALLLCFSTTALSQVQLQQSGPGLVKPSHTLSLTCTVSGGSISSGGYYWSWTRQHPGMGLEWIGYISYSGSIYYTPSLKSRLTISVDTSKNQFSLKLSSVTAADTAVYYCASLDSWGSNRDYWGQGTLVTVSSGGGGSEIVLTQSPATLSLSPGERATLSCRASQSVSSYLAWYQQKPGQAPRLLIYDASNRATGIPARFSGSGSGTDFTLTISSLEPEDFAVYYCQQRSNWPLTFGGGTKVEIK |
| 15.2 | 35.2 | 44 | 62.5 | fusion protein shown in SEQ ID NO. 5 (anti-CD44 single-chain antibody, CD28, truncated body of IL7Rα, CD3), expressed on CAR-T 3 cells (other) QVQLVESGGGVVQPGRSLRLSCAASGFTFSSYGMHWVRQAPGKGLEWVAVIWYDGSNKFYADSVKGRFTISRDNSKNTLYLQMNSLRAEDTAVYYCARRSDYRGYYGMDVWGQGTTVTVSSGSTSGGGSGGGSGGGGSSEIVLTQSPATLSLSPGERATLSCRASQSVINYLAWYQQKPGQAPRLLIYDASNRASGIPARFSGSGSGTDFTLTISSLEPEDFAVYYCQQRRNWPLTFGGGTKVEIKTTTPAPRPPTPAPTIASQPLSLRPEACRPAAGGAVHTRGLDFACDIYIWAPLAGTCGVLLLSLVITLYCRSKRSRLLHSDYMNMTPRRPGPTRKHYQPYAPPRDFAAYRSKKRIKPIVWPSLPDHKKTLEHLCKKPRKNLNVSFNPESFLDCQIHRVDDIQARDEVEGFLQDTFPQQLEESEKQRLLGSNQEEAYVTMSSFYQNQRVKFSRSADAPAYKQGQNQLYNELNLGRREEYDVLDKRRGRDPEMGGKPRRKNPQEGLYNELQKDKMAEAYSEIGMKGERRRGKGHDGLYQGLSTATKDTYDALHMQALPPR |
| 9.93 | 12.2 | 35 | 57.3 | fusion protein shown in SEQ ID NO. 3 (anti-CD44 single-chain antibody, CD28, CD3), expressed on CAR-T 1 cells (other) QVQLVESGGGVVQPGRSLRLSCAASGFTFSSYGMHWVRQAPGKGLEWVAVIWYDGSNKFYADSVKGRFTISRDNSKNTLYLQMNSLRAEDTAVYYCARRSDYRGYYGMDVWGQGTTVTVSSGSTSGGGSGGGSGGGGSSEIVLTQSPATLSLSPGERATLSCRASQSVINYLAWYQQKPGQAPRLLIYDASNRASGIPARFSGSGSGTDFTLTISSLEPEDFAVYYCQQRRNWPLTFGGGTKVEIKTTTPAPRPPTPAPTIASQPLSLRPEACRPAAGGAVHTRGLDFACDIYIWAPLAGTCGVLLLSLVITLYCRSKRSRLLHSDYMNMTPRRPGPTRKHYQPYAPPRDFAAYRSRVKFSRSADAPAYKQGQNQLYNELNLGRREEYDVLDKRRGRDPEMGGKPRRKNPQEGLYNELQKDKMAEAYSEIGMKGERRRGKGHDGLYQGLSTATKDTYDALHMQALPPR |
| 14 | 23.2 | 41 | 56.9 | fusion protein shown in SEQ ID NO. 4 (anti-CD44 single-chain antibody, anti-CD133 single-chain antibody, CD28, CD3), expressed on CAR-T 2 cells (other) QVQLVESGGGVVQPGRSLRLSCAASGFTFSSYGMHWVRQAPGKGLEWVAVIWYDGSNKFYADSVKGRFTISRDNSKNTLYLQMNSLRAEDTAVYYCARRSDYRGYYGMDVWGQGTTVTVSSGSTSGGGSGGGSGGGGSSEIVLTQSPATLSLSPGERATLSCRASQSVINYLAWYQQKPGQAPRLLIYDASNRASGIPARFSGSGSGTDFTLTISSLEPEDFAVYYCQQRRNWPLTFGGGTKVEIKGGGGSGGGGSGGGGSQVQLVQSGAEVKKPGASVKVSCKASGYTFTDFEMHWVRQAPGQGLEWMGDIDPGTGDTAYNLKFKGRVTMTTDTSTSTAYMELRSLRSDDTAVYYCALGAFVYWGQGTLVTVSSGSTSGGGSGGGSGGGGSSDVVMTQSPLSLPVTPGEPASISCRSSQSLANSYGNTYLSWYLQKPGQSPQLLIYGISNRFSGVPDRFSGSGSGTDFTLKISRVEAEDVGVYYCLQGTHQPYTFGQGTKLEIKTTTPAPRPPTPAPTIASQPLSLRPEACRPAAGGAVHTRGLDFACDIYIWAPLAGTCGVLLLSLVITLYCRSKRSRLLHSDYMNMTPRRPGPTRKHYQPYAPPRDFAAYRSRVKFSRSADAPAYKQGQNQLYNELNLGRREEYDVLDKRRGRDPEMGGKPRRKNPQEGLYNELQKDKMAEAYSEIGMKGERRRGKGHDGLYQGLSTATKDTYDALHMQALPPR |
| 30.3 | 48.5 | 51.2 | 81.2 | fusion protein shown in SEQ ID NO. 7 (anti-CD44 single-chain antibody, CD28, truncated body of IL7Rα, CD3, T2A, anti-TIM3 single-chain antibody), expressed on … (other) QVQLVESGGGVVQPGRSLRLSCAASGFTFSSYGMHWVRQAPGKGLEWVAVIWYDGSNKFYADSVKGRFTISRDNSKNTLYLQMNSLRAEDTAVYYCARRSDYRGYYGMDVWGQGTTVTVSSGSTSGGGSGGGSGGGGSSEIVLTQSPATLSLSPGERATLSCRASQSVINYLAWYQQKPGQAPRLLIYDASNRASGIPARFSGSGSGTDFTLTISSLEPEDFAVYYCQQRRNWPLTFGGGTKVEIKTTTPAPRPPTPAPTIASQPLSLRPEACRPAAGGAVHTRGLDFACDIYIWAPLAGTCGVLLLSLVITLYCRSKRSRLLHSDYMNMTPRRPGPTRKHYQPYAPPRDFAAYRSKKRIKPIVWPSLPDHKKTLEHLCKKPRKNLNVSFNPESFLDCQIHRVDDIQARDEVEGFLQDTFPQQLEESEKQRLLGSNQEEAYVTMSSFYQNQRVKFSRSADAPAYKQGQNQLYNELNLGRREEYDVLDKRRGRDPEMGGKPRRKNPQEGLYNELQKDKMAEAYSEIGMKGERRRGKGHDGLYQGLSTATKDTYDALHMQALPPREGRGSLLTCGDVEENPGPMTNKCLLQIALLLCFSTTALSQVQLQQSGPGLVKPSHTLSLTCTVSGGSISSGGYYWSWTRQHPGMGLEWIGYISYSGSIYYTPSLKSRLTISVDTSKNQFSLKLSSVTAADTAVYYCASLDSWGSNRDYWGQGTLVTVSSGGGGSEIVLTQSPATLSLSPGERATLSCRASQSVSSYLAWYQQKPGQAPRLLIYDASNRATGIPARFSGSGSGTDFTLTISSLEPEDFAVYYCQQRSNWPLTFGGGTKVEIK |
